This test addresses β-arrestin2 (UniProt P32121). Briefly: BRET, MOR-Nluc and β-arrestin2-Venus. Particulars: for other: Emax, vehicle-subtracted BRET ratio: reference: vehicle. (BRET reads energy transfer from a luciferase to a nearby fluorophore.)

As to “mu-opioid receptor (MOR, mMOR) (from UniProt P42866) morphine”, where the note is “reference: DAMGO, sites T376,T379”, the percent of reference result is “weaker; reference 100”.

For “mu-opioid receptor (MOR, mMOR) (from UniProt P42866) DAMGO, 10 min”, the other: Emax, vehicle-subtracted BRET ratio (sites T370,S375,T376,T379) was determined as 0.07 BRET ratio.

As to “mu-opioid receptor (MOR, mMOR) (from UniProt P42866) morphine, 10 min”, the other: Emax, vehicle-subtracted BRET ratio (sites S375) was found to be 0.008 BRET ratio.

Source of the values: paper PMC11297201.
